The values that follow are results of earlier work, collected in article PMC4664810.

Where two headings read alike, the source gives them in different places.

For data set [1], the target named is CD20 (Homo sapiens) (UniProt P11836).
For data set [2] the target is unchanged. The source holds these as a separate data set.

Sequence of CD20 (Homo sapiens) (P11836 whole entry): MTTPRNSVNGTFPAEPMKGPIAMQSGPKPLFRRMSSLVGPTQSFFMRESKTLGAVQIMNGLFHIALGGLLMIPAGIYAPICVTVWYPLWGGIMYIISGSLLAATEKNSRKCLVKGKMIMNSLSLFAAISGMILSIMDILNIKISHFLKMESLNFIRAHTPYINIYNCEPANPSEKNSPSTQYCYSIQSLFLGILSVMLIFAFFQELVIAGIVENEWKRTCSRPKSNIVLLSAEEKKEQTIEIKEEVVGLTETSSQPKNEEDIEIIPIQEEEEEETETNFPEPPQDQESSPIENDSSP

For orientation: Kd means the concentration at which binding is half-saturated. With ofatumumab, the dissociation constant (Kd) in data set [1] is 4.76 nM.

Regarding rituximab, in data set [2], the Kd is 5.45 nM.
